In PMC6600642:

Tests used:
[1] = molecular target: microtubules (polymerized from unlabeled tubulin, Taxol-stabilised)
[2] = molecular target: microtubules (polymerized from unlabeled tubulin, Taxol-stabilised); remark: listed apart in the source

microtubules (polymerized from unlabeled tubulin, Taxol-stabilised), sequence (chain, as listed by the source, chain 1 of 2): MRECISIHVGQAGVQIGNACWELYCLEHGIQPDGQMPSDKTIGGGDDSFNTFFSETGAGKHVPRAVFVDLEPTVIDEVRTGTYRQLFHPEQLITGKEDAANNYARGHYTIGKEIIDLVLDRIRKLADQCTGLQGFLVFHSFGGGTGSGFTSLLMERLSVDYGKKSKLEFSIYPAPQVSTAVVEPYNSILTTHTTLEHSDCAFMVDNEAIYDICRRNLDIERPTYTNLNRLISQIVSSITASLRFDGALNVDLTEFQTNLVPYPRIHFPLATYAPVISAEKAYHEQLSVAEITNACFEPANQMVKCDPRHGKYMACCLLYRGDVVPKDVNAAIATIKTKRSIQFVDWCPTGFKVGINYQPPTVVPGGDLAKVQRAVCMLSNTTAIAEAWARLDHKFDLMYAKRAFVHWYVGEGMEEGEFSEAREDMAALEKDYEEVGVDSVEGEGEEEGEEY
microtubules (polymerized from unlabeled tubulin, Taxol-stabilised), sequence (chain, as listed by the source, chain 2 of 2): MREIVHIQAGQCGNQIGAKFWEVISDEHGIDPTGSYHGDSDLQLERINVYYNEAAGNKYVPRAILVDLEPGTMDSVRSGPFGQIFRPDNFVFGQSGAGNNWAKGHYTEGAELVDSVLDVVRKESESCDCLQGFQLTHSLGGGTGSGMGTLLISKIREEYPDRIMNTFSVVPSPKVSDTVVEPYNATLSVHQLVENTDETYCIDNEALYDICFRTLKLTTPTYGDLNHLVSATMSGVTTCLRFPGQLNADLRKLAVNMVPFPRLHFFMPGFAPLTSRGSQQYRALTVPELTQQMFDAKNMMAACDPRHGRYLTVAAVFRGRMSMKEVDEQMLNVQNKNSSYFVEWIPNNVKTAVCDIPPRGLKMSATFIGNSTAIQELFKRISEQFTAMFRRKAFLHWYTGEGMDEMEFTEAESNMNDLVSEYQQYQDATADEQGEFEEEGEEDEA

## Saccharomyces cerevisiae cytoplasmic dynein (Dyn1) 1219-4093, monomeric construct, wild-type, P36022 1219-4092
[1]
  microtubule-stimulated ATPase activity of monomeric dynein (second series, beside mutant 14): [MT] K M: 0.42 µM
[2]
  microtubule-stimulated ATPase activity of monomeric dynein, 0–5 μM microtubules: K M for tubulin dimer: 0.5 µM
